According to patent publication US20230357364A1 (INTERNATIONAL AIDS VACCINE INITIATIVE, published 2023):
Where two headings read alike, the source gives them in different places.

Tests used:
[1] = target: T1, SARS-CoV-1 spike on pseudovirus (SARS-CoV-1, UniProt P59594 14-1255); test: cell-based or functional assay
[2] = target: T2, SARS-CoV-2 spike on pseudovirus or live virus (USA-WA1/2020, WT) (SARS-CoV-2, UniProt P0DTC2 14-1273); test: cell-based or functional assay
SARS-CoV-2 RBD (RBD-2) [3] = target: SARS-CoV-2 RBD (RBD-2) (SARS-CoV-2); test: flow, HeLa-ACE2, mAb:RBD=4:1
SARS-CoV-2 RBD (RBD-2) [4] = target: SARS-CoV-2 RBD (RBD-2) (SARS-CoV-2); test: SPR, Fc-captured IgG
[5] = target: T1, SARS-CoV-1 spike on pseudovirus; test: cell-based or functional assay; remark: listed apart in the source
[6] = target: T2, SARS-CoV-2 spike on pseudovirus or live …; test: cell-based or functional assay; remark: listed apart in the source
SARS-CoV-2 RBD (RBD-2) [7] = target: SARS-CoV-2 RBD (RBD-2) (SARS-CoV-2); test: ELISA
SARS-CoV-1 RBD (RBD-1) = SARS-CoV-1 RBD (RBD-1) (SARS-CoV-1); test: ELISA
SARS-CoV-2 RBD (RBD-2) [8] = target: SARS-CoV-2 RBD (RBD-2) (SARS-CoV-2); test: flow, HeLa-ACE2, mAb:RBD=2:1
[9] = target: T2, SARS-CoV-2 spike on pseudovirus or live …; test: cell-based or functional assay; remark: listed apart in the source
[10] = target: T2, SARS-CoV-2 spike on pseudovirus or live …; test: cell-based or functional assay; remark: listed apart in the source
[11] = target: T1, SARS-CoV-1 spike on pseudovirus; test: cell-based or functional assay; remark: listed apart in the source
[12] = target: T2, SARS-CoV-2 spike on pseudovirus or live …; test: cell-based or functional assay; remark: listed apart in the source
SARS-CoV-2 RBD (RBD-2) [13] = target: SARS-CoV-2 RBD (RBD-2) (SARS-CoV-2); test: SPR

Row | Binder | PSV neutralization IC50 [1] | PSV neutralization IC50 [2] | % inhibition of RBD binding to hACE2 (SARS-CoV-2 RBD (RBD-2) [3]) | MFI (RBD binding to cell surface) (SARS-CoV-2 RBD (RBD-2) [3]) | Kd (SARS-CoV-2 RBD (RBD-2) [4]) | koff (SARS-CoV-2 RBD (RBD-2) [4]) | kon (SARS-CoV-2 RBD (RBD-2) [4]) | PSV neutralization IC50 [5] | Maximum Plateau of Neutralization [6] | PSV neutralization IC50 [6] | EC50 (SARS-CoV-2 RBD (RBD-2) [7]) | EC50 (SARS-CoV-1 RBD (RBD-1)) | % inhibition of RBD binding to hACE2 (SARS-CoV-2 RBD (RBD-2) [8]) | MFI (RBD binding to cell surface) (SARS-CoV-2 RBD (RBD-2) [8]) | neutralization IC50 [10] | also measured
1 | L12.bP11A11 (antibody, V domains shown, human IgG1) VH: QVQLVQSGAEVKKPGASVKVSCKASGYTFTGYYMHWVRQAPGQGLEWMGWISPNSGGTNYAQKFQGWVTMTRDTSVSTAYMELSRLRFDDTAVYYCATESWVYGSGSYSSGAFDIWGQGTMVTVSS VL: QSVLTQPPSASGSPGQSVTISCTGTSSDVGGYDYVSWYQQHPGKAPKLMIYEVSKRPSGVPDRFSGSKSGNTASLTVPGLQAEDEADYYCTSYAGSNNFVFGGGTKLIVL | > 50 µg/mL | 0.016 µg/mL | 53.9% | 5190 | 170 nM | 0.066 s⁻¹ | 388000 M⁻¹ s⁻¹ | > 50 µg/mL | 100% | 0.11 µg/mL | 1.9 µg/mL | > 50 µg/mL | 43.6% | 6330 | – | –
2 | L6.dP04E05 (antibody, V domains shown, human IgG1) VH: EVQLVESGGGLVQPGRSLRLSCAASGFTFDDYAMHWVRQAPGKGLEWVSGISWNSDNIGYADSVKGRFTVSRDNAKNSLYLQMNSLRAEDTALYYCTKDIHRKNDYYDILTGYYRVRYYYYAMDVWGQGTTVTVSS VL: QSVLTQPPSASGSPGQSVTISCTGTSSDAGGYNYVSWYQQHPGKAPKLMIYEVIKRPSGVPDRFSGSKSGNTASLTVSGLQAEDEADYYCSSFAGTSVVFGGGTKLTVL | – | – | – | – | – | – | – | – | – | – | 0.018 µg/mL | > 10 µg/mL | – | – | 0.00036 µg/mL | fold more potent than L12.bP11A6 [9]: ~50 fold; PSV in HeLa-ACE2 cells IC50 [11]: > 25 µg/mL; PSV in HeLa-ACE2 cells IC50 [12]: 0.006 µg/mL; live virus IC50 (HeLa-ACE2) [12]: 0.003 µg/mL; live virus IC50 (Vero) [12]: 0.006 µg/mL
3 | L12.cP07E10 (antibody, V domains shown, human IgG1) VH: EVQLVESGGGLIQPGGSLRLSCAASGFTVSSNYMSWVRQAPGKGLEWVSVIYSGGSTYYADSVKGRFTISRDNSKNTLYLQMNSLRAEDTAVYYCARDPYGYSSIWDGQGGHWGQGTLVTVSS VL: DVVMTQSPSSLSASVGDRVTITCQASQDISNYLNWYQQKPGKAPKLLIYDASNFATGVPSRFSGTGSGTDFTFTISSLQPEDIATYYCQQYDNLPITFGQGTRLEIK | > 50 µg/mL | 0.029 µg/mL | 99.1% | 178 | 2.6 nM | 0.000364 s⁻¹ | 140000 M⁻¹ s⁻¹ | > 50 µg/mL | 100% | 0.1 µg/mL | 0.058 µg/mL | > 50 µg/mL | 98.6% | 237 | – | –
4 | L6.dP03H10 (antibody, V domains shown) VH: QVQLVQSGAEVKKPGSSVKVSCKASGGTFSIYAITWVRQAPGQGLEWMGGIIPIIGTANYAQKFQGRVTITADKSTSTAYMELSSLRSEDTAVYYCARDFRYCSSTRCYFWFDPWGQGTLVTVSS VL: DIQMTQSPSSLSASVGDRVTITCRASQNISSYLNWYQQEAGKAPKLLIYAASSLQSGVPSRFSGSGSGTDFTLTISSLQPEDFATYYCQQSYSTPRTFGQGTKVDIK | – | – | – | – | – | – | – | > 50 µg/mL | 100% | 0.001 µg/mL | 0.012 µg/mL | > 50 µg/mL | – | – | 0.0017 µg/mL | Kd (SARS-CoV-2 RBD (RBD-2) [13]): 5.9 nM
5 | L6.dP02E05 (antibody, V domains shown, human IgG1) VH: QVQLVQSGSELKKPGASVKVSCKASGYTFATYALNWVRQAPGQGLEWMGWVNTNTGSPTYAQGFTGRFVFSFDTSVSTAYLQIRTLKAEDTAVYYCAVYYYDSGSPGWFDPWGQGTLVTVSS VL: DIQLTQSPSSLSASVGDRVTITCRASQTASSYLNWYQQKPGKAPNLLIYAASSLQSGVPSRFSGSGSVTDFTLTISSLQPEDFATYYCQQSYSTPPTFGQGTKVDIK | – | – | – | – | – | – | – | > 50 µg/mL | 100% | 0.002 µg/mL | 0.015 µg/mL | > 50 µg/mL | – | – | 0.0075 µg/mL | –
6 | L6.dP04A03 (antibody, V domains shown) VH: QVQLVQSGAEVKKPGSSVKVSCKASGGTFSSSAISWVRQAPGQGLEWMGGIIPILDITNYAQKFQGRVTITADKSTSTAFMELSSLRSEDTAVYYCALRNQWDLLVYWGQGTLVTVSS VL: not shown | – | – | – | – | – | – | – | 0.162 µg/mL | 100% | 0.039 µg/mL | – | 0.915 µg/mL | – | – | 0.168 µg/mL | Kd (SARS-CoV-2 RBD (RBD-2) [13]): 257 nM
7 | L6.P4A3.1 (antibody, V domains shown) VH: QVQLVQSGAEVKKPGSSVKVSCKASGGIFSSSAISWVRQAPGQGLEWMGGIIPILDISNYAQKFQGRVTITADKSTSTAFMELSSLRSEDTAVYYCALTNQWDLLVYWGQGTLVTVSS VL: EIVLTQSPGTLSLSPGERATLSCRASQRVSSSYLAWYQQKPGQAPRLLIYGAESRATGIPDRFSGSGSGTDFTLTISRLEPEDFAVYYCQHYGSSLWTFGQGTKLEIK | – | – | – | – | – | – | – | – | – | – | – | – | – | – | – | PSV in HeLa-ACE2 cells IC50 [11]: 0.049 µg/mL; PSV in HeLa-ACE2 cells IC50 [12]: 0.005 µg/mL; live virus IC50 (HeLa-ACE2) [12]: 0.008 µg/mL; live virus IC50 (Vero) [12]: 0.001 µg/mL
8 | L12.cP09D05 (antibody, V domains shown, human IgG1) VH: QVQLVESGGGLVKPGGSLRLSCAASGFTFNYYSMNWVRQAPGKGLEWISSISTSSSFVYYADSVKGRFTISRDNAKTSLYLQMNSLRAEDTAVYFCARGGYCSDGSCYVQDRLIYYYSGLDVWGQGTTVTVSS VL: not shown | > 50 µg/mL | 0.008 µg/mL | 80.6% | 2230 | 36.2 nM | 0.0157 s⁻¹ | 435000 M⁻¹ s⁻¹ | > 50 µg/mL | 100% | 0.023 µg/mL | 0.039 µg/mL | > 50 µg/mL | 75.4% | 2810 | – | –
9 | L12.bP11G07 (antibody, V domains shown, human IgG1) VH: QVQLVESGGGLIQPGGSLRLSCAASGFTVSSNYMSWVRQAPGKGLEWVSVIYSGGSTFYADSVKGRFTISRDNSKSTLYLQMNSLRVEDTAVYYCARDFGDFYFDYWGQGTLVTVSS VL: not shown | > 50 µg/mL | 0.013 µg/mL | 91.9% | 982 | 8.59 nM | 0.00342 s⁻¹ | 399000 M⁻¹ s⁻¹ | > 50 µg/mL | 100% | 0.018 µg/mL | 0.025 µg/mL | > 50 µg/mL | 86.8% | 1550 | – | –
10 | L12.cP08D10 (antibody, V domains shown, human IgG1) VH: EVQLVQSGAEVKKPGASVKVSCKASGYIFSGYYMHWVRQAPGQGLEWMGWISPDSGGTNYAQNFQGRVTMTRDTSISTGYMELSRLRSDDTAMYYCARGPRYSGTYFDYWGQGVLVTVSS VL: QSVLTQPASVSGSPGQSITISCTGTSSDVGGYNYVSWYQQHPGKVPKLMIYDVSNRPSGVSNRFSGSKSGNTASLTISGLQAEDEADYYCSSYTSSSAQVFGGGTKLTVL | > 50 µg/mL | 4.3 µg/mL | 13.2% | 9710 | > 500 nM | 0.312 s⁻¹ | 59400 M⁻¹ s⁻¹ | > 50 µg/mL | 60% | 23.5 µg/mL | > 50 µg/mL | > 50 µg/mL | 6.1% | 10500 | – | –
